Experimental data: US20210395340A1 (KINDRED BIOSCIENCES, published 2021)

T1: canine IL13 with C-terminal poly-His tag (produced in 293 cells) (canine, UniProt Q9N0W9 19-131)
T1 sequence: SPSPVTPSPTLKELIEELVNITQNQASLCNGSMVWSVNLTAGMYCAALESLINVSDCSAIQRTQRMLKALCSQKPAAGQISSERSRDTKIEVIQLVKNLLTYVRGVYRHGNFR

T2: canine IL4 (Sino Biological Inc, Cat #70021-DNAE-5) (canine, UniProt O77762 25-132, limits assumed)
T2 sequence (looked up): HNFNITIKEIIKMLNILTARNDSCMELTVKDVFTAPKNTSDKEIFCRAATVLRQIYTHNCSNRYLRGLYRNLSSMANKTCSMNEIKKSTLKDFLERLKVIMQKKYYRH


Legend:
[1] = molecular target: T1, canine IL13 with C-terminal poly-His …; assay: BLI (Octet)
[2] = molecular target: T2, canine IL4 (Sino Biological Inc, Cat …); assay: cell-based or functional assay

Row | Binder | binding result [1] | TF1 cell proliferation assay (CellTiter-Glo luminescence), IC50 [2]
1 | canine IL4RECD-IL13RECD-IgGB Fc (Fc fusion, The IL4R ECD precedes the IL13R ECD, followed by canine IgG-B Fc; also called canine IL4RECD-IL13RECD-Fc; SINK) SGSVKVLHEPSCFSDYISTSVCQWKMDHPTNCSAELRLSYQLDFMGSENHTCVPENREDSVCVCSMPIDDAVEADVYQLDLWAGQQLLWSGSFQPSKHVKPRTPGNLTVHPNISHTWLLMWTNPYPTENHLHSELTYMVNVSNDNDPEDFKVYNVTYMGPTLRLAASTLKSGASYSARVRAWAQTYNSTWSDWSPSTTWLNYYEPGGGSGTETQPPVTNLSVSVENLCTVIWTWDPPEGASPNCTLRYFSHFDNKQDKKIAPETHRSKEVPLNERICLQVGSQCSTNESDNPSILVEKCTPPPEGDPESAVTELQCVWHNLSYMKCTWLPGRNTSPDTNYTLYYWHSSLGKILQCEDIYREGQHIGCSFALTNLKDSSFEQHSVQIVVKDNAGKIRPSFNIVPLTSHVKPDPPHIKRLFFQNGNLYVQWKNPQNFYSRCLSYQVEVNNSQTETNDIFYVEEAKCQNSEFEGNLEGTICFMVPGVLPDTLNTVRIRVRTNKLCYEDDKLWSNWSQAMSIGENTDPTPKRENGRVPRPPDCPKCPAPEMLGGPSVFIFPPKPKDTLLIARTPEVTCVVVDLDPEDPEVQISWFVDGKQMQTAKTQPREEQFNGTYRVVSVLPIGHQDWLKGKQFTCKVNNKALPSPIERTISKARGQAHQPSVYVLPPSREELSKNTVSLTCLIKDFFPPDIDVEWQSNGQQEPESKYRTTPPQLDEDGSYFLYSKLSVDKSRWQRGDTFICAVMHEALHNHYTQESLSHSPGK | binds | 2 nM
2 | canine IL13RECD-IL4RECD-IgGB Fc (Fc fusion, also called canine IL13RECD-IL4RECD-Fc; IL13R ECD/IL4R ECD contiguous polypeptide) TETQPPVTNLSVSVENLCTVIWTWDPPEGASPNCTLRYFSHFDNKQDKKIAPETHRSKEVPLNERICLQVGSQCSTNESDNPSILVEKCTPPPEGDPESAVTELQCVWHNLSYMKCTWLPGRNTSPDTNYTLYYWHSSLGKILQCEDIYREGQHIGCSFALTNLKDSSFEQHSVQIVVKDNAGKIRPSFNIVPLTSHVKPDPPHIKRLFFQNGNLYVQWKNPQNFYSRCLSYQVEVNNSQTETNDIFYVEEAKCQNSEFEGNLEGTICFMVPGVLPDTLNTVRIRVRTNKLCYEDDKLWSNWSQAMSIGENTDPTGGGSGSGSVKVLHEPSCFSDYISTSVCQWKMDHPTNCSAELRLSYQLDFMGSENHTCVPENREDSVCVCSMPIDDAVEADVYQLDLWAGQQLLWSGSFQPSKHVKPRTPGNLTVHPNISHTWLLMWTNPYPTENHLHSELTYMVNVSNDNDPEDFKVYNVTYMGPTLRLAASTLKSGASYSARVRAWAQTYNSTWSDWSPSTTWLNYYEPKRENGRVPRPPDCPKCPAPEMLGGPSVFIFPPKPKDTLLIARTPEVTCVVVDLDPEDPEVQISWFVDGKQMQTAKTQPREEQFNGTYRVVSVLPIGHQDWLKGKQFTCKVNNKALPSPIERTISKARGQAHQPSVYVLPPSREELSKNTVSLTCLIKDFFPPDIDVEWQSNGQQEPESKYRTTPPQLDEDGSYFLYSKLSVDKSRWQRGDTFICAVMHEALHNHYTQESLSHSPGK | binds | –
